Results on 1 substance are retold here after IntAct's records for PubMed 25686249.

The target in one test is pdc6i_human PDCD6IP (UniProt Q8WUM4).
The next test concerns the target atg12_mouse Atg12 (UniProt Q9CQY1).

Chain of Ubiquitin-like-conjugating enzyme ATG3 (Mus musculus), Q9CPX6 K243R (Q9CPX6 whole entry K243R): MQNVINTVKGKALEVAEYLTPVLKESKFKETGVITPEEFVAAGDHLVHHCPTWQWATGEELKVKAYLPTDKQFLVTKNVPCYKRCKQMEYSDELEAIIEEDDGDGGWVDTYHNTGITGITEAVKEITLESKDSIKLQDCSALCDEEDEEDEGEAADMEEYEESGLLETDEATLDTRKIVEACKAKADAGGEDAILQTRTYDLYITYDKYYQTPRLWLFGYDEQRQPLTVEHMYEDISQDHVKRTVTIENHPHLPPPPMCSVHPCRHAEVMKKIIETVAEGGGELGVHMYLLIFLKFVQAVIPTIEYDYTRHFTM
Chain of pdc6i_human PDCD6IP (Q8WUM4 whole entry): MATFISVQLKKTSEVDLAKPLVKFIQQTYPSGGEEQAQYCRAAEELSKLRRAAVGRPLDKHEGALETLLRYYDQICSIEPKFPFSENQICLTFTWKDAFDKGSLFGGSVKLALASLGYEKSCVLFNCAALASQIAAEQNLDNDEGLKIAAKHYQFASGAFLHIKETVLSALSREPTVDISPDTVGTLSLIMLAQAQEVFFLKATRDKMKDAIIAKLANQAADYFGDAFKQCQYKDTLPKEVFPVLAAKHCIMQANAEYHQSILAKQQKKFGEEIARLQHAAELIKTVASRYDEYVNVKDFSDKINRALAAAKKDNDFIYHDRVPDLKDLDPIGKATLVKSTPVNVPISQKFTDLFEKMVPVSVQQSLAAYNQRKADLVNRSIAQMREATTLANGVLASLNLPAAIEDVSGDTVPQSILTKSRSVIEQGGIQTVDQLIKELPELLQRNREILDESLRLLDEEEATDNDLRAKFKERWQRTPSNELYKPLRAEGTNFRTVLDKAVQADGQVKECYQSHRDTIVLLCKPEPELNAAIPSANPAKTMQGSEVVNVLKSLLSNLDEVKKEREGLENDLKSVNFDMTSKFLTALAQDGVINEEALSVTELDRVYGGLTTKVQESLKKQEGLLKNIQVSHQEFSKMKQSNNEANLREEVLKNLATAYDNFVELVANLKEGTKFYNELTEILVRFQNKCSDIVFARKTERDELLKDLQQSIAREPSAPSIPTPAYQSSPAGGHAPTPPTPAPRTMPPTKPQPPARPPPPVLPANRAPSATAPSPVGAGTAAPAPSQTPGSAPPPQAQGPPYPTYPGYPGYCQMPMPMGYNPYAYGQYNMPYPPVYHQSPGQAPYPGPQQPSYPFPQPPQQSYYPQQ
Chain of atg12_mouse Atg12 (Q9CQY1 whole entry): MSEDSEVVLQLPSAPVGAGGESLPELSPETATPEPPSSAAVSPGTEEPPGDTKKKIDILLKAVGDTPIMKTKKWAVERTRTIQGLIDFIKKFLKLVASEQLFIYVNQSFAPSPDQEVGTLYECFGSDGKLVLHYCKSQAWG

As to “Ubiquitin-like-conjugating enzyme ATG3 (Mus musculus), Q9CPX6 K243R”, the “effect of a mutation on the interaction” value with pdc6i_human PDCD6IP and in the test with atg12_mouse Atg12 was “disrupting interaction strength” in each case.
